Results published in US20040006215A1 (Bristol-Myers Squibb, published 2004).
Values joined by “and” are separate entries in the source; they are usually repeats but may differ in a detail not shown here. Equal values may be shown once.

T1: Human CD30 antigen (Medarex, Inc.) (human) (UniProt P28908)
T1 sequence (looked up): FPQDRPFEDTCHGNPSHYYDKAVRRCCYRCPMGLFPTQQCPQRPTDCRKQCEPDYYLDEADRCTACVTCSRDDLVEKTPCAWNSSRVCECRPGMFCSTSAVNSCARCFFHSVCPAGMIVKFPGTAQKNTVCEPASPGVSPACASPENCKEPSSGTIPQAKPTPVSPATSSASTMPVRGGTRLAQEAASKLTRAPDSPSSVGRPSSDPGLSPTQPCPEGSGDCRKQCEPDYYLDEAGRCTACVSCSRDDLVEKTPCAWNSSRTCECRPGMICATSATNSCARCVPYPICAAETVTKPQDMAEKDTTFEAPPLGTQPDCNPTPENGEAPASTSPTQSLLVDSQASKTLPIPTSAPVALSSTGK

T2: recombinant CD30 (supernatant from transfected cells expressing recombinant CD30) (UniProt P28908)
T2 sequence (looked up): T1 sequence (looked up)

T3: native CD30 expressed on cells (L540 Hodgkin's lymphoma cell line) (human, UniProt P28908 19-595)
T3 construct: whole, on cells; also called CD30 on L540 cells; CD30-expressing L540 cells
T3 sequence (looked up): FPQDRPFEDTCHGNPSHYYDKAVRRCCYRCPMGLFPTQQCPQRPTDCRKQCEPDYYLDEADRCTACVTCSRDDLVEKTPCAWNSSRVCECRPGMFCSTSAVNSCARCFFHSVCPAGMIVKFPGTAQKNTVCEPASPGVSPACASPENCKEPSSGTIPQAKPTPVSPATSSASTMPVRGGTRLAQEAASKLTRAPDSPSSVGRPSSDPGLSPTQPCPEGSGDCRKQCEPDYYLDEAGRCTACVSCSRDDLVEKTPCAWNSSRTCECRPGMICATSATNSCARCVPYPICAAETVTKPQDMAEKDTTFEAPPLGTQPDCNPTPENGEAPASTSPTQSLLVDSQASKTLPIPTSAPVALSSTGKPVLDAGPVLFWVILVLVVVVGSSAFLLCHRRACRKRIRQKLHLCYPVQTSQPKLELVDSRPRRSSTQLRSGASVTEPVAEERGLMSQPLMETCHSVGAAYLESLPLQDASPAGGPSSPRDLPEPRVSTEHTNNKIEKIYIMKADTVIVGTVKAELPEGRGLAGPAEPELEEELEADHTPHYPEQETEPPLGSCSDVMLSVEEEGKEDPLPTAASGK

T4: recombinant CD30 (supernatant from transfected cells expressing recombinant CD30) (UniProt P28908 19-379, limits assumed)
T4 construct: May be the same preparation as the soluble recombinant CD30 used for immunisation or as m4
T4 sequence (looked up): T1 sequence (looked up)

B1: human monoclonal antibody (HuMab) 5F11 (antibody, V domains shown)
VH: QVQLQQWGAGLLKPSETLSLTCAVYGGSFSAYYWSWIRQPPGKGLEWIGDINHGGGTNYNPSLKSRVTISVDTSKNQFSLKLNSVTAADTAVYYCASLTAYWGQGSLVTVSS
VL: DIQMTQSPTSLSASVGDRVTITCRASQGISSWLTWYQQKPEKAPKSLIYAASSLQSGVPSRFSGSGSGTDFTLTISSLQPEDFATYYCQQYDSYPITFGQGTRLEIK
B2: human monoclonal antibody (HuMab) 2H9 (antibody, V domains shown)
VH: QVQLQQWGAGLLKPSETLSLTCAVYGGSFSGYYWSWIRQPPGKGLEWIGEINHSGSTKYTPSLKSRVTISVDTSKHQFSLKLSSVTAADTAVYYCARETVYYFDLWGRGTLVTVSS
VL: EIVLTQSPATLSLSPGERATLSCRASQSVSSNLAWYQQKPGQAPRLLIYDASNRATGIPARLSGSGSGTDFTLTISSLEPEDFAVYYCQQRSNWPWTFGQGTKVEIK

Assays:
[1] = target: native CD30 expressed on cells (L540 Hodgkin's lymphoma cell line) (human) (UniProt P28908); assay: flow cytometry on L540 cells
[2] = target: T1, Human CD30 antigen (Medarex, Inc.) (human); assay: SPR (Biacore 3000), 5F11 captured on protein A, CD30 as analyte, 1:1 Langmuir fit, experiment 1
[3] = target: native CD30 expressed on cells (L540 Hodgkin's lymphoma cell line) (human) (UniProt P28908); assay: flow cytometry on L540 cells at 4 °C, detection with FITC-labeled goat anti-human IgG Fc, mean fluorescence intensity
[4] = target: T1, Human CD30 antigen (Medarex, Inc.) (human); assay: SPR (Biacore 3000), 5F11 captured on protein A, CD30 as analyte, 1:1 Langmuir fit, experiment 2
[5] = target: T2, recombinant CD30 (supernatant from transfected cells expressing recombinant CD30); assay: capture ELISA: recombinant CD30 captured on BerH2-coated wells, detection with AP-labeled goat anti-human IgG Fc, OD405
[6] = target: native CD30 expressed on cells (L540 Hodgkin's lymphoma cell line) (human) (UniProt P28908); assay: cell-based or functional assay
[7] = target: T3, native CD30 expressed on cells (L540 …); assay: flow cytometry on L540 cells at 4 °C, detection with FITC-labeled goat anti-human IgG Fc, mean fluorescence intensity
Procedure: Antibodies were tested for binding to L540, a Hodgkin's lymphoma cell line that expresses high-levels of CD30. […] After 1 hour, the cells were washed with PBS and the bound antibodies were detected by incubating the cells with a FITC labeled goat anti-human IgG Fc-specific probe, at 4° C. The excess probe was washed from the cells with PBS and the cell associated fluorescence was determined by analysis using a FACScalibur instrument.

[8] = target: T4, recombinant CD30 (supernatant from …); assay: capture ELISA: recombinant CD30 captured on BerH2-coated wells, detection with AP-labeled goat anti-human IgG Fc, OD405
Procedure: Microtiter wells were coated with BerH2. After blocking the wells with 5% BSA solution, supernatant from transfected cells expressing recombinant CD30 was allowed to react with BER-H2 coated wells. […] After 1 hour, the wells were washed with PBS-tween and the bound antibodies were detected by incubating the cells with an alkaline-phosphatase-labeled goat anti-human IgG Fc-specific probe, at 37° C. The excess probe was washed from the wells and the plate was developed with pNPP developer. The optical density at 405 nm was determined using a microtiter plate reader.

| Binder | concentration at saturation [1] | Kd [2] | koff [2] | kon [2] | EC50 (read off the curve) [3] | Kd [4] | koff [4] | kon [4] | EC50 (read off the curve) [5] | IC50 of growth inhibition (XTT assay) of L540 and Karpas 299 cells, 5F11 cross-linked by goat-anti-human IgG [6] | EC50 (read off the curve) [7] | EC50 (read off the curve) [8] |
| --- | --- | --- | --- | --- | --- | --- | --- | --- | --- | --- | --- | --- |
| B1 | < 1 µg/mL | 1.23 nM and 1.36 nM | 7.47e-05 s⁻¹ and 7.03e-05 s⁻¹ | 60900 M⁻¹ s⁻¹ and 51600 M⁻¹ s⁻¹ | 0.05 µg/mL | 1.14 nM and 1.12 nM | 6.58e-05 s⁻¹ and 6.86e-05 s⁻¹ | 57700 M⁻¹ s⁻¹ and 61300 M⁻¹ s⁻¹ | 0.04 µg/mL | 10 µg/mL |  |  |
| B2 |  |  |  |  |  |  |  |  |  |  | ~0.1 µg/mL | ~0.03 µg/mL |
